# B1: VH:VL chains; a variant is named by its letters at X, in order (parent)
# chain 1: QVQLVQSGAEVKKPGASVKVSCKASGYTFTDYXMHWVRQAPGQGLEWMGXVNPNXXXTTYNQKFEGRVTMTTDTSTSTAYMELRSLRSDDTAVYYCARXNXLDXWGQGTTVTVSS
# chain 2: DIQMTQSPSSLSASVGDRVTITCSVSSSVSSIYLHWYQQKPGKAPKLLIYSTSNLASGVPSRFSGSGSGTDFTLTISSLQPEDFATYYCQVYSGYPLTFGGGTKVEIK
# Variants of: B1
# Assay: yeast display scFab, FACS + sequencing
# How it was run: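 Heavy-chain CDR mutant scFab yeast surface library, FACS-sorted after labelling with biotinylated ovalbumin (260 μg/mL in PBSB, 3 h, room temperature) or soluble membrane proteins (130 μg/mL, 20 min on ice), plus anti-Myc. Gates collected the top 25% and bottom 10% of binders, and samples from two replicates were deep sequenced. Non-specific binding call: a sequence was positive if found in ≥3 of 4 positive samples (membrane protein and ovalbumin pooled) and no negatives, and negative by the converse rule.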
row,Variant,non-specific binding call
1,SEEGSDAS,no binding
2,VEGADAVA chain 1 G106S,no binding
3,YEERSDAF,no binding
4,VEERDDWF,no binding
5,YEGGGDLV,no binding
6,VEGGGAAS,no binding
7,VEGGGAAA,no binding
8,VEGGGDGA,no binding
9,VEGGGDGD,no binding
10,VEGGGDGV,no binding
11,YEGGGSAV,no binding
12,VEERDAVA,no binding
13,VEGGGSVD,no binding
14,VEEEGDGV,no binding
15,VEEEGDGA,no binding
16,SEEEGDVA,no binding
17,FEEGTDWY,no binding
18,FEEEGSAA,no binding
19,VEEEGDSA,no binding
20,SEGADAVA chain 1 G106S,no binding
21,AEERASAF,binds
22,YEGGADVV,no binding

row,Variant,non-specific binding call
1,YEGGADVA,no binding
2,YEGGADVD,no binding
3,YEGGADVF,no binding
4,SEGGDAGD,no binding
5,SEEEGAGD,no binding
6,VEGGGSGV,no binding
7,YEGGGSSA,no binding
8,AEEKGSGD,no binding
9,FEETDASA,binds
10,VEGGADVF,no binding
11,DEGEDAGA,no binding
12,SEEGTDGV,no binding
13,VEGGGDAA,no binding
14,VEEEGAGD,no binding
15,VEEEGAGV,no binding
16,VEEEGALD,no binding
17,YEGAASWF,no binding
18,VEETSSLD,no binding
19,SEEEGDWV,no binding
20,YEGGGDWF,no binding
21,YEGGGDWV,no binding
22,VEEEGSVD,no binding

row,Variant,non-specific binding call
1,VEEEGSVV,no binding
2,VEEEGSVS,no binding
3,SEEEGASV,no binding
4,VEGGGAWA,no binding
5,DEGGGSSA,no binding
6,VEGEDAGA,no binding
7,VEERDAGD,no binding
8,VEGGGAGV,no binding
9,VEGGGDWS,no binding
10,VEGGGDWA,no binding
11,DEGAGDGF,binds
12,VEGEDAAA,no binding
13,VEGGGFAY,no binding
14,SEEEGSGV,no binding
15,VEGAAAGS,no binding
16,SEEGTAGD,no binding
17,SEEGTAGA,no binding
18,YEERTAAA,binds
19,VEGAASWF,no binding
20,VEGAASWV,no binding
21,YEGGGDGD,no binding
22,YEGGGDGA,no binding

row,Variant,non-specific binding call
1,VEEEGDAA,no binding
2,VEEEGDAV,no binding
3,SEGGDAWV,no binding
4,DEGGGAGS,no binding
5,YEEGTDWY,no binding
6,VEEEGSGA,no binding
7,VEEEGSGV,no binding
8,DEGGDAGD,no binding
9,AEEEGSAA,no binding
10,FEERNSLD,binds
11,YEGGGYSF,no binding
12,FEETDAGD,binds
13,SEEEGSAA,no binding
14,SEGADAGD,no binding
15,VEGGGSSS,no binding
16,VEGGGSSV,no binding
17,VEGGGSSA,no binding
18,VEEEGDVY,no binding
19,VEEEGDVA,no binding
20,DEETNSGA,binds
21,DEGGGDGA,no binding
22,SEEEGDAV,no binding

row,Variant,non-specific binding call
1,VEEEGDWV,no binding
2,VEEEGDWD,no binding
3,SEEGTDWD,no binding
4,SEEGTDWY,no binding
5,YEGGGFSV,no binding
6,VEGGGYGV,no binding
7,VEGGGFSV,no binding
8,DEGGDDAA,no binding
9,DEEEGSAA,no binding
10,AEERDSVV,no binding
11,VEGGGDVY,no binding
12,VEGGGDVA,no binding
13,VEGGGDVD,no binding
14,VEGGGDVV,no binding
15,VEGAADVD,no binding
16,VEEEGSWV,no binding
17,VEEEGSAV,no binding
18,VEEEGSAD,no binding
19,YEGGGDVY,no binding
20,YEGGGDVA,no binding
21,VEGGGAVV,no binding

# Reference: the emibetuzumab library of Makowski et al. (2022)
